Data from the supplement of paper PMC9112550, “Optimization of the antimicrobial peptide Bac7 by deep mutational scanning” (BMC Biology, 2022).

Tested on: Escherichia coli TOP10
Assay: shrunken log2 fold change of peptide-encoding DNA abundance (4.5 h post-induction vs induction); higher = less antimicrobial activity (less host growth inhibition)
Conditions: time post-induction: 4.5 h; library: site-saturation at positions 5, 18, 19, 20
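Note: peptides expressed intracellularly from a pBAD plasmid library in pooled LB shake-flask culture, induced with 0.3% L-arabinose, DNA abundance read by NGS, three biological replicates, DESeq2 with apeglm shrinkage.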

## RRIRMRPPRLPRPRPRPGWGPRP
  shrunken log2 fold change: 1.2

## RRIRMRPPRLPRPRPRPGYAPRP
  shrunken log2 fold change: 0.341

## RRIRMRPPRLPRPRPRPGYGPRP
  shrunken log2 fold change: 0.148

## RRIRMRPPRLPRPRPRPHCLPRP
  shrunken log2 fold change: -0.0601

## RRIRMRPPRLPRPRPRPHCRPRP
  shrunken log2 fold change: 0.274

## RRIRMRPPRLPRPRPRPHEAPRP
  shrunken log2 fold change: 0.0628

## RRIRMRPPRLPRPRPRPHFIPRP
  shrunken log2 fold change: 0.0859

## RRIRMRPPRLPRPRPRPHFMPRP
  shrunken log2 fold change: -0.127

## RRIRMRPPRLPRPRPRPHHNPRP
  shrunken log2 fold change: -0.533

## RRIRMRPPRLPRPRPRPHHTPRP
  shrunken log2 fold change: -0.263

## RRIRMRPPRLPRPRPRPHKGPRP
  shrunken log2 fold change: 0.034

## RRIRMRPPRLPRPRPRPHKKPRP
  shrunken log2 fold change: 0.0772

## RRIRMRPPRLPRPRPRPHKSPRP
  shrunken log2 fold change: 0.223

## RRIRMRPPRLPRPRPRPHLWPRP
  shrunken log2 fold change: 0.374

## RRIRMRPPRLPRPRPRPHMDPRP
  shrunken log2 fold change: -0.604

## RRIRMRPPRLPRPRPRPHMVPRP
  shrunken log2 fold change: -0.0116

## RRIRMRPPRLPRPRPRPHNMPRP
  shrunken log2 fold change: -0.243

## RRIRMRPPRLPRPRPRPHNRPRP
  shrunken log2 fold change: -0.172

## RRIRMRPPRLPRPRPRPHNWPRP
  shrunken log2 fold change: 0.249

## RRIRMRPPRLPRPRPRPHSTPRP
  shrunken log2 fold change: 0.126

## RRIRMRPPRLPRPRPRPHYRPRP
  shrunken log2 fold change: -0.223

## RRIRMRPPRLPRPRPRPIAQPRP
  shrunken log2 fold change: 0.726

## RRIRMRPPRLPRPRPRPIDEPRP
  shrunken log2 fold change: -0.0525

## RRIRMRPPRLPRPRPRPIDHPRP
  shrunken log2 fold change: 0.0383

## RRIRMRPPRLPRPRPRPIEAPRP
  shrunken log2 fold change: 0.111

## RRIRMRPPRLPRPRPRPIESPRP
  shrunken log2 fold change: 0.000778

## RRIRMRPPRLPRPRPRPIGEPRP
  shrunken log2 fold change: 0.0433

## RRIRMRPPRLPRPRPRPIIVPRP
  shrunken log2 fold change: -0.0119

## RRIRMRPPRLPRPRPRPIKEPRP
  shrunken log2 fold change: -0.00194

## RRIRMRPPRLPRPRPRPIKTPRP
  shrunken log2 fold change: -0.0802

## RRIRMRPPRLPRPRPRPIMHPRP
  shrunken log2 fold change: -0.128

## RRIRMRPPRLPRPRPRPIMPPRP
  shrunken log2 fold change: 0.0288

## RRIRMRPPRLPRPRPRPINSPRP
  shrunken log2 fold change: -0.142

## RRIRMRPPRLPRPRPRPINVPRP
  shrunken log2 fold change: -0.0528

## RRIRMRPPRLPRPRPRPIQRPRP
  shrunken log2 fold change: 0.544

## RRIRMRPPRLPRPRPRPIQYPRP
  shrunken log2 fold change: 0.0408

## RRIRMRPPRLPRPRPRPIRLPRP
  shrunken log2 fold change: 0.0373

## RRIRMRPPRLPRPRPRPISHPRP
  shrunken log2 fold change: -0.018

## RRIRMRPPRLPRPRPRPITEPRP
  shrunken log2 fold change: -0.012

## RRIRMRPPRLPRPRPRPIYTPRP
  shrunken log2 fold change: -0.257

## RRIRMRPPRLPRPRPRPIYVPRP
  shrunken log2 fold change: -0.165

## RRIRMRPPRLPRPRPRPKAAPRP
  shrunken log2 fold change: 3.33

## RRIRMRPPRLPRPRPRPKAPPRP
  shrunken log2 fold change: 1.42

## RRIRMRPPRLPRPRPRPKAYPRP
  shrunken log2 fold change: 0.0225

## RRIRMRPPRLPRPRPRPKERPRP
  shrunken log2 fold change: 0.0219

## RRIRMRPPRLPRPRPRPKGIPRP
  shrunken log2 fold change: 0.0647

## RRIRMRPPRLPRPRPRPKHNPRP
  shrunken log2 fold change: 0.131

## RRIRMRPPRLPRPRPRPKLAPRP
  shrunken log2 fold change: 2.87

## RRIRMRPPRLPRPRPRPKLQPRP
  shrunken log2 fold change: 0.273

## RRIRMRPPRLPRPRPRPKMEPRP
  shrunken log2 fold change: 1.45

## RRIRMRPPRLPRPRPRPKMRPRP
  shrunken log2 fold change: 1.21

## RRIRMRPPRLPRPRPRPKNCPRP
  shrunken log2 fold change: 0.0597

## RRIRMRPPRLPRPRPRPKNLPRP
  shrunken log2 fold change: -0.102

## RRIRMRPPRLPRPRPRPKPLPRP
  shrunken log2 fold change: 0.603

## RRIRMRPPRLPRPRPRPKPQPRP
  shrunken log2 fold change: 1.41

## RRIRMRPPRLPRPRPRPKRMPRP
  shrunken log2 fold change: 1.06

## RRIRMRPPRLPRPRPRPKRVPRP
  shrunken log2 fold change: 0.0291

## RRIRMRPPRLPRPRPRPKSCPRP
  shrunken log2 fold change: 0.839

## RRIRMRPPRLPRPRPRPKWLPRP
  shrunken log2 fold change: 0.612

## RRIRMRPPRLPRPRPRPKWPPRP
  shrunken log2 fold change: 1.18

## RRIRMRPPRLPRPRPRPLACPRP
  shrunken log2 fold change: 0.244

## RRIRMRPPRLPRPRPRPLAKPRP
  shrunken log2 fold change: 0.791

## RRIRMRPPRLPRPRPRPLAVPRP
  shrunken log2 fold change: 0.328

## RRIRMRPPRLPRPRPRPLCAPRP
  shrunken log2 fold change: 1.24

## RRIRMRPPRLPRPRPRPLDTPRP
  shrunken log2 fold change: -0.0606

## RRIRMRPPRLPRPRPRPLEEPRP
  shrunken log2 fold change: 3.36

## RRIRMRPPRLPRPRPRPLEPPRP
  shrunken log2 fold change: 0.261

## RRIRMRPPRLPRPRPRPLFDPRP
  shrunken log2 fold change: 0.201

## RRIRMRPPRLPRPRPRPLKMPRP
  shrunken log2 fold change: 0.146

## RRIRMRPPRLPRPRPRPLLAPRP
  shrunken log2 fold change: 2.1

## RRIRMRPPRLPRPRPRPLLDPRP
  shrunken log2 fold change: 0.409

## RRIRMRPPRLPRPRPRPLNEPRP
  shrunken log2 fold change: 0.216

## RRIRMRPPRLPRPRPRPLNKPRP
  shrunken log2 fold change: 0.118

## RRIRMRPPRLPRPRPRPLPIPRP
  shrunken log2 fold change: -0.0881

## RRIRMRPPRLPRPRPRPLPPPRP
  shrunken log2 fold change: 1.37

## RRIRMRPPRLPRPRPRPLQEPRP
  shrunken log2 fold change: 2.68

## RRIRMRPPRLPRPRPRPLQPPRP
  shrunken log2 fold change: 0.737

## RRIRMRPPRLPRPRPRPLQSPRP
  shrunken log2 fold change: 2.75

## RRIRMRPPRLPRPRPRPLRPPRP
  shrunken log2 fold change: 1.76

## RRIRMRPPRLPRPRPRPLTHPRP
  shrunken log2 fold change: 0.0406

## RRIRMRPPRLPRPRPRPLVYPRP
  shrunken log2 fold change: 0.19

## RRIRMRPPRLPRPRPRPLYLPRP
  shrunken log2 fold change: -0.327

## RRIRMRPPRLPRPRPRPMATPRP
  shrunken log2 fold change: 0.0129

## RRIRMRPPRLPRPRPRPMDVPRP
  shrunken log2 fold change: -0.0209

## RRIRMRPPRLPRPRPRPMDYPRP
  shrunken log2 fold change: -0.00149

## RRIRMRPPRLPRPRPRPMFCPRP
  shrunken log2 fold change: -0.0875

## RRIRMRPPRLPRPRPRPMGTPRP
  shrunken log2 fold change: 0.301

## RRIRMRPPRLPRPRPRPMGVPRP
  shrunken log2 fold change: 0.06

## RRIRMRPPRLPRPRPRPMGWPRP
  shrunken log2 fold change: 0.808

## RRIRMRPPRLPRPRPRPMIFPRP
  shrunken log2 fold change: 0.0369

## RRIRMRPPRLPRPRPRPMIIPRP
  shrunken log2 fold change: -0.117

## RRIRMRPPRLPRPRPRPMKKPRP
  shrunken log2 fold change: -0.00637

## RRIRMRPPRLPRPRPRPMKPPRP
  shrunken log2 fold change: -0.00107

## RRIRMRPPRLPRPRPRPMLVPRP
  shrunken log2 fold change: 0.2

## RRIRMRPPRLPRPRPRPMMHPRP
  shrunken log2 fold change: -0.0538

## RRIRMRPPRLPRPRPRPMMLPRP
  shrunken log2 fold change: -0.15

## RRIRMRPPRLPRPRPRPMMSPRP
  shrunken log2 fold change: 0.0456

## RRIRMRPPRLPRPRPRPMQQPRP
  shrunken log2 fold change: 1.38

## RRIRMRPPRLPRPRPRPMRAPRP
  shrunken log2 fold change: 2.56

## RRIRMRPPRLPRPRPRPMRKPRP
  shrunken log2 fold change: 0.361

## RRIRMRPPRLPRPRPRPMTDPRP
  shrunken log2 fold change: 0.0744

## RRIRMRPPRLPRPRPRPMTYPRP
  shrunken log2 fold change: 0.157

## RRIRMRPPRLPRPRPRPMVEPRP
  shrunken log2 fold change: 0.0167

## RRIRMRPPRLPRPRPRPMYCPRP
  shrunken log2 fold change: -0.0254

## RRIRMRPPRLPRPRPRPNAEPRP
  shrunken log2 fold change: -0.0356

## RRIRMRPPRLPRPRPRPNCSPRP
  shrunken log2 fold change: 0.135

## RRIRMRPPRLPRPRPRPNCYPRP
  shrunken log2 fold change: -0.26

## RRIRMRPPRLPRPRPRPNDDPRP
  shrunken log2 fold change: 0.196

## RRIRMRPPRLPRPRPRPNDWPRP
  shrunken log2 fold change: 0.435

## RRIRMRPPRLPRPRPRPNECPRP
  shrunken log2 fold change: 0.175

## RRIRMRPPRLPRPRPRPNEIPRP
  shrunken log2 fold change: 0.0871

## RRIRMRPPRLPRPRPRPNEYPRP
  shrunken log2 fold change: -0.0432

## RRIRMRPPRLPRPRPRPNFCPRP
  shrunken log2 fold change: 0.0533

## RRIRMRPPRLPRPRPRPNGAPRP
  shrunken log2 fold change: 0.0765

## RRIRMRPPRLPRPRPRPNGDPRP
  shrunken log2 fold change: 0.297

## RRIRMRPPRLPRPRPRPNGPPRP
  shrunken log2 fold change: 0.114

## RRIRMRPPRLPRPRPRPNGTPRP
  shrunken log2 fold change: 0.0915

## RRIRMRPPRLPRPRPRPNHQPRP
  shrunken log2 fold change: -0.105

## RRIRMRPPRLPRPRPRPNIVPRP
  shrunken log2 fold change: 0.0335

## RRIRMRPPRLPRPRPRPNKAPRP
  shrunken log2 fold change: -0.05

## RRIRMRPPRLPRPRPRPNKMPRP
  shrunken log2 fold change: -0.134

## RRIRMRPPRLPRPRPRPNKTPRP
  shrunken log2 fold change: -0.0156

## RRIRMRPPRLPRPRPRPNLAPRP
  shrunken log2 fold change: 0.337

## RRIRMRPPRLPRPRPRPNLPPRP
  shrunken log2 fold change: -0.0556

## RRIRMRPPRLPRPRPRPNNCPRP
  shrunken log2 fold change: -0.167

## RRIRMRPPRLPRPRPRPNPHPRP
  shrunken log2 fold change: 0.269

## RRIRMRPPRLPRPRPRPNPPPRP
  shrunken log2 fold change: 0.311

## RRIRMRPPRLPRPRPRPNPRPRP
  shrunken log2 fold change: 0.718

## RRIRMRPPRLPRPRPRPNQMPRP
  shrunken log2 fold change: 0.217

## RRIRMRPPRLPRPRPRPNTAPRP
  shrunken log2 fold change: 0.0661

## RRIRMRPPRLPRPRPRPNTCPRP
  shrunken log2 fold change: -0.145

## RRIRMRPPRLPRPRPRPNTFPRP
  shrunken log2 fold change: 0.105

## RRIRMRPPRLPRPRPRPNTSPRP
  shrunken log2 fold change: -0.0142

## RRIRMRPPRLPRPRPRPNWCPRP
  shrunken log2 fold change: 0.0361

## RRIRMRPPRLPRPRPRPNWGPRP
  shrunken log2 fold change: 0.448

## RRIRMRPPRLPRPRPRPNYDPRP
  shrunken log2 fold change: -0.149

## RRIRMRPPRLPRPRPRPPCHPRP
  shrunken log2 fold change: 0.186

## RRIRMRPPRLPRPRPRPPCRPRP
  shrunken log2 fold change: 0.584

## RRIRMRPPRLPRPRPRPPDTPRP
  shrunken log2 fold change: 1.84

## RRIRMRPPRLPRPRPRPPDVPRP
  shrunken log2 fold change: 0.00748

## RRIRMRPPRLPRPRPRPPEAPRP
  shrunken log2 fold change: 0.779

## RRIRMRPPRLPRPRPRPPEVPRP
  shrunken log2 fold change: 1.25

## RRIRMRPPRLPRPRPRPPEWPRP
  shrunken log2 fold change: 0.5

## RRIRMRPPRLPRPRPRPPHQPRP
  shrunken log2 fold change: 0.634

## RRIRMRPPRLPRPRPRPPHTPRP
  shrunken log2 fold change: 0.824

## RRIRMRPPRLPRPRPRPPLEPRP
  shrunken log2 fold change: 0.873

## RRIRMRPPRLPRPRPRPPLLPRP
  shrunken log2 fold change: 0.515

## RRIRMRPPRLPRPRPRPPLWPRP
  shrunken log2 fold change: 1.31

## RRIRMRPPRLPRPRPRPPMLPRP
  shrunken log2 fold change: 0.382

## RRIRMRPPRLPRPRPRPPNMPRP
  shrunken log2 fold change: 0.268
